Assays:
[1] = target: C. elegans caspase CED-3 (C. elegans) (UniProt P42573); assay: cell-based or functional assay
[2] = target: caspase 7 lacking the N-terminal 53 amino acid prodomain (caspase 7^53) (human) (UniProt P55210); assay: cell-based or functional assay
Sequence of UniProt P55210 (P55210 54-303 limits assumed): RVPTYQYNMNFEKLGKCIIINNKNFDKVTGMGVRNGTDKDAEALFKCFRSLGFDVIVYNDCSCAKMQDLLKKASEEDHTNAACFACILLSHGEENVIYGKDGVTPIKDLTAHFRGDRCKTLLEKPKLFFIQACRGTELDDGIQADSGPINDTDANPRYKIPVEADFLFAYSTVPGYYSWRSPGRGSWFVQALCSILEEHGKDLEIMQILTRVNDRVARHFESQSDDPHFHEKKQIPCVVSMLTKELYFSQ

Sequence of UniProt P42573 (P42573 whole entry): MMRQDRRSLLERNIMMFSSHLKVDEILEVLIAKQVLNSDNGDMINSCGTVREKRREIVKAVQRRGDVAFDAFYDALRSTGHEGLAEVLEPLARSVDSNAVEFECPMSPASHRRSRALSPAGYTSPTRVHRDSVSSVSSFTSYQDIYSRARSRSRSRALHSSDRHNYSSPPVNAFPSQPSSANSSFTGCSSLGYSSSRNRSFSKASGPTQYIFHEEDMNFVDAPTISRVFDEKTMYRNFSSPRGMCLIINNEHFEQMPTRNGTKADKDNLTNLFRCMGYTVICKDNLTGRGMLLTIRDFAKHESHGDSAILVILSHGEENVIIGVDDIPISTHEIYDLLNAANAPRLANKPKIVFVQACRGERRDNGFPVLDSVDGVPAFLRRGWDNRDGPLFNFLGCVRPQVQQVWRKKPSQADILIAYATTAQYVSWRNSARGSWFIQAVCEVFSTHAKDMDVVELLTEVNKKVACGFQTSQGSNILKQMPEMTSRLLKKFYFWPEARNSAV

| Substance | beta-gal activity (ONPG assay) of the caspase-dependent CLBDG6 LexA/lacZ reporter in yeast (fold inhibition) [1] | beta-gal activity (ONPG assay) of the caspase-dependent CLBDG6 LexA/lacZ reporter in yeast (fold inhibition) [2] |
| --- | --- | --- |
| baculovirus p35 (from UniProt P08160 1-299) | 5 | 5 |
| mouse IAP MIHA (from UniProt Q60989 1-496) |  | 2 |
